Test system: Escherichia coli TOP10
Experiment: shrunken log2 fold change of peptide-encoding DNA abundance (4.5 h post-induction vs induction); higher = less antimicrobial activity (less host growth inhibition)
Details: time post-induction: 4.5 h; library: site-saturation at positions 5, 18, 19, 20
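Also: peptides expressed intracellularly from a pBAD plasmid library in pooled LB shake-flask culture, induced with 0.3% L-arabinose, DNA abundance read by NGS, three biological replicates, DESeq2 with apeglm shrinkage.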

| Sequence | shrunken log2 fold change |
| --- | --- |
| RRIRWRPPRLPRPRPRPKCPPRP | -0.00278 |
| RRIRLRPPRLPRPRPRPFDQPRP | 0.0721 |
| RRIRNRPPRLPRPRPRPEPTPRP | 0.587 |
| RRIRLRPPRLPRPRPRPVITPRP | -0.372 |
| RRIRIRPPRLPRPRPRPCDPPRP | 0.00225 |
| RRIRDRPPRLPRPRPRPFYEPRP | -0.262 |
| RRIRERPPRLPRPRPRPPETPRP | -0.0785 |
| RRIRARPPRLPRPRPRPCKRPRP | -0.0822 |
| RRIRPRPPRLPRPRPRPYLYPRP | -0.672 |
| RRIRYRPPRLPRPRPRPKNFPRP | -0.663 |
| RRIRARPPRLPRPRPRPCALPRP | 0.00197 |
| RRIRDRPPRLPRPRPRPVCVPRP | 0.514 |
| RRIRWRPPRLPRPRPRPKQKPRP | 0.0665 |
| RRIRYRPPRLPRPRPRPPRFPRP | 0.0549 |
| RRIRDRPPRLPRPRPRPMVFPRP | -0.0423 |
| RRIRCRPPRLPRPRPRPELMPRP | 0.23 |
| RRIRHRPPRLPRPRPRPSSFPRP | 0.0395 |
| RRIRHRPPRLPRPRPRPKQVPRP | -0.482 |
| RRIRRRPPRLPRPRPRPFHIPRP | -0.0758 |
| RRIRFRPPRLPRPRPRPDQAPRP | -0.0167 |
| RRIRMRPPRLPRPRPRPDLAPRP | 1.4 |
| RRIRCRPPRLPRPRPRPKPKPRP | 0.407 |
| RRIRQRPPRLPRPRPRPPRCPRP | 0.689 |
| RRIRCRPPRLPRPRPRPQTNPRP | -0.374 |
| RRIRQRPPRLPRPRPRPTYSPRP | 0.0402 |

| Sequence | shrunken log2 fold change |
| --- | --- |
| RRIRSRPPRLPRPRPRPADPPRP | 0.0724 |
| RRIRFRPPRLPRPRPRPKKDPRP | 0.184 |
| RRIRQRPPRLPRPRPRPKWCPRP | -0.0936 |
| RRIRQRPPRLPRPRPRPDGWPRP | 0.228 |
| RRIRSRPPRLPRPRPRPTAEPRP | 0.825 |
| RRIRNRPPRLPRPRPRPFKCPRP | -0.0598 |
| RRIRKRPPRLPRPRPRPGYVPRP | -0.0738 |
| RRIRERPPRLPRPRPRPRNMPRP | -0.228 |
| RRIRTRPPRLPRPRPRPPPQPRP | 0.848 |
| RRIRTRPPRLPRPRPRPWIYPRP | -0.0134 |
| RRIRERPPRLPRPRPRPIVWPRP | 0.0693 |
| RRIRARPPRLPRPRPRPPAVPRP | 0.927 |
| RRIRARPPRLPRPRPRPSRIPRP | 0.163 |
| RRIRHRPPRLPRPRPRPIGRPRP | -0.00982 |
| RRIRHRPPRLPRPRPRPSPTPRP | 0.0862 |
| RRIRNRPPRLPRPRPRPLQNPRP | 0.176 |
| RRIRNRPPRLPRPRPRPGKSPRP | -0.0101 |
| RRIRYRPPRLPRPRPRPSEDPRP | -0.123 |
| RRIRERPPRLPRPRPRPEGHPRP | 0.11 |
| RRIRSRPPRLPRPRPRPCTIPRP | -0.148 |
| RRIRLRPPRLPRPRPRPFPRPRP | -0.163 |
| RRIRPRPPRLPRPRPRPTHQPRP | 0.615 |
| RRIRVRPPRLPRPRPRPEELPRP | -0.0522 |
| RRIRCRPPRLPRPRPRPKKTPRP | -0.142 |
| RRIRLRPPRLPRPRPRPGLSPRP | 0.00141 |

| Sequence | shrunken log2 fold change |
| --- | --- |
| RRIRIRPPRLPRPRPRPVYTPRP | -0.346 |
| RRIRPRPPRLPRPRPRPNPFPRP | -0.382 |
| RRIRHRPPRLPRPRPRPNPSPRP | -0.0145 |
| RRIRDRPPRLPRPRPRPTVFPRP | 0.708 |
| RRIRARPPRLPRPRPRPRKSPRP | 0.778 |
| RRIRFRPPRLPRPRPRPTLAPRP | 0.361 |
| RRIRDRPPRLPRPRPRPMDRPRP | -0.01 |
| RRIRQRPPRLPRPRPRPYHKPRP | 0.0375 |
| RRIRQRPPRLPRPRPRPHRWPRP | 0.057 |
| RRIRNRPPRLPRPRPRPHKDPRP | -0.737 |
| RRIRWRPPRLPRPRPRPLYLPRP | -0.5 |
| RRIRKRPPRLPRPRPRPIICPRP | -0.0679 |
| RRIRNRPPRLPRPRPRPCGEPRP | 0.0369 |
| RRIRPRPPRLPRPRPRPTFFPRP | 0.212 |
| RRIRQRPPRLPRPRPRPKCQPRP | 0.0473 |
| RRIRKRPPRLPRPRPRPQKEPRP | -0.00503 |
| RRIRHRPPRLPRPRPRPPHNPRP | 0.348 |
| RRIRHRPPRLPRPRPRPQSCPRP | -0.0062 |
| RRIRHRPPRLPRPRPRPANMPRP | -0.126 |
| RRIRLRPPRLPRPRPRPHCQPRP | -0.0416 |
| RRIRYRPPRLPRPRPRPKQFPRP | -0.155 |
| RRIRARPPRLPRPRPRPAFEPRP | 0.702 |
| RRIRSRPPRLPRPRPRPNWVPRP | -0.214 |
| RRIRYRPPRLPRPRPRPHVRPRP | -0.202 |
| RRIRDRPPRLPRPRPRPWMRPRP | 0.013 |

| Sequence | shrunken log2 fold change |
| --- | --- |
| RRIRFRPPRLPRPRPRPFLIPRP | -0.304 |
| RRIRHRPPRLPRPRPRPRHGPRP | -0.0477 |
| RRIRYRPPRLPRPRPRPQDWPRP | -0.258 |
| RRIRYRPPRLPRPRPRPFFSPRP | -0.77 |
| RRIRMRPPRLPRPRPRPNLTPRP | 0.0283 |
| RRIRHRPPRLPRPRPRPANHPRP | -0.262 |
| RRIRVRPPRLPRPRPRPGYSPRP | -0.553 |
| RRIRLRPPRLPRPRPRPSYCPRP | -0.413 |
| RRIRSRPPRLPRPRPRPHCHPRP | -0.783 |
| RRIRPRPPRLPRPRPRPGTQPRP | 0.185 |
| RRIRVRPPRLPRPRPRPIVCPRP | -0.0744 |
| RRIRMRPPRLPRPRPRPFGHPRP | -0.0287 |
| RRIRKRPPRLPRPRPRPEEMPRP | -0.000157 |
| RRIRQRPPRLPRPRPRPRTHPRP | 0.167 |
| RRIRRRPPRLPRPRPRPQQVPRP | -0.0275 |
| RRIRERPPRLPRPRPRPAAPPRP | 0.504 |
| RRIRHRPPRLPRPRPRPSKLPRP | -0.448 |
| RRIRHRPPRLPRPRPRPKCNPRP | -0.00178 |
| RRIRRRPPRLPRPRPRPEQDPRP | 0.727 |
| RRIRRRPPRLPRPRPRPMIQPRP | 0.107 |
| RRIRLRPPRLPRPRPRPCMKPRP | -0.101 |
| RRIRQRPPRLPRPRPRPWIDPRP | -0.0353 |
| RRIRSRPPRLPRPRPRPGCLPRP | 0.0602 |
| RRIRQRPPRLPRPRPRPDHTPRP | -0.0589 |
| RRIRGRPPRLPRPRPRPECHPRP | 1.62 |

| Sequence | shrunken log2 fold change |
| --- | --- |
| RRIRLRPPRLPRPRPRPARNPRP | 0.483 |
| RRIRSRPPRLPRPRPRPAAPPRP | 0.66 |
| RRIRIRPPRLPRPRPRPYQLPRP | -0.699 |
| RRIRIRPPRLPRPRPRPWKAPRP | -0.00804 |
| RRIRDRPPRLPRPRPRPKRFPRP | -0.017 |
| RRIRLRPPRLPRPRPRPYYFPRP | -0.767 |
| RRIRLRPPRLPRPRPRPCKEPRP | -0.0177 |
| RRIRKRPPRLPRPRPRPDVSPRP | -0.382 |
| RRIRMRPPRLPRPRPRPYFCPRP | -0.352 |
| RRIRYRPPRLPRPRPRPNTTPRP | -0.114 |
| RRIRWRPPRLPRPRPRPWGKPRP | 0.0784 |
| RRIRSRPPRLPRPRPRPTCGPRP | 0.468 |
| RRIRIRPPRLPRPRPRPIEQPRP | -0.489 |
| RRIRPRPPRLPRPRPRPWQYPRP | 0.0173 |
| RRIRCRPPRLPRPRPRPMYYPRP | -0.472 |
| RRIRWRPPRLPRPRPRPAHHPRP | -0.0193 |
| RRIRGRPPRLPRPRPRPAKRPRP | 0.504 |
| RRIRFRPPRLPRPRPRPHFCPRP | -1.02 |
| RRIRFRPPRLPRPRPRPLDKPRP | -0.103 |
| RRIRIRPPRLPRPRPRPLMAPRP | -0.408 |
| RRIRERPPRLPRPRPRPNSAPRP | -0.503 |
| RRIRFRPPRLPRPRPRPRRNPRP | 0.136 |
| RRIRNRPPRLPRPRPRPKYPPRP | -0.137 |
| RRIRMRPPRLPRPRPRPVLHPRP | -0.309 |
| RRIRARPPRLPRPRPRPYMVPRP | -0.583 |
